Measurements: patent US20060003399

How the values were obtained:
[1] = test system: Full length human N-WASP, TAP-tagged at the C-terminus (Myc-N-WASP-TAP)
[2] = test system: Full length human WASP, TAP-tagged at the C-terminus (Myc-WASP-TAP)

## GST-tev-Rac1
[1]
  actin polymerization at higher activator concentrations: At higher concentrations, Nck1, Nck2 and Rac1 inhibited WASP- and N-WASP-stimulated actin polymerization
[2]
  actin polymerization at higher activator concentrations: At higher concentrations, Nck1, Nck2 and Rac1 inhibited WASP- and N-WASP-stimulated actin polymerization
